In patent US20020160949A1 (WHITEHEAD INSTITUTE FOR BIOMEDICAL RESEARCH, published 2002):

What was measured:
murine IL-7Rα = target: T1, murine IL-7Rα (murine, UniProt P16872 21-459); assay: affinity labeling of transfected 293 cells with 125I-TSLP, DSS cross-linking, SDS-PAGE
T1 construct: whole, on cells; Expressed alone on transfected 293 cells; also called murine IL-7Rα alone
T1 sequence (looked up): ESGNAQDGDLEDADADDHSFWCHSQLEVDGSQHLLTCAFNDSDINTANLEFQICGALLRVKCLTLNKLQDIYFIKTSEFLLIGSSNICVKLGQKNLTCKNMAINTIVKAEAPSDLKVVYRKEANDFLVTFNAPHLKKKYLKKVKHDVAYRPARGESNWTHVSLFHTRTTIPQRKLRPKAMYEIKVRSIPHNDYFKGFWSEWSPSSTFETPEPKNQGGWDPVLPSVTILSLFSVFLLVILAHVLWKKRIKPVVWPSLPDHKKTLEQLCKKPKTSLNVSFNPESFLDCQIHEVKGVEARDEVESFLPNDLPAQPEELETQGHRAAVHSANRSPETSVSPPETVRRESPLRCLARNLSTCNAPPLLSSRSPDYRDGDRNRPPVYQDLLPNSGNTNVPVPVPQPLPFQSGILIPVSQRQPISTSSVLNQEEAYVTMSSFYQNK
Procedure: The binding of TSLP to TSLPR polypeptide in the presence of IL-7Rα was examined in affinity labeling assays. Affinity labeling assays were performed by adding 1-5 nM of ¹²⁵I-labeled TSLP to 5×10⁶ 293 cells transfected with expression constructs for murine IL-7Rα, murine TSLPR polypeptide, murine IL-7Rα and murine TSLPR polypeptide, or human IL-7Rα and murine TSLPR polypeptide. Iodinated TSLP was prepared by adding IODO-GEN (Pierce, Rockford, Ill.) and 2 mCi ¹²⁵I to 1 μg of TSLP. A specific activity of approximately 200-300 μCi/μg was obtained by this method. Prior to affinity labeling, 293 cells were transiently transfected using the calcium phosphate method (Eppendorf-5 Prime, Boulder, Colo.). Following a 2 hour incubation with ¹²⁵I-TSLP, cells were cross-linked with 0.1 mg/ml disuccinimidyl suberate (Pierce), lysed in lysis buffer, and the lysates resolved by SDS-PAGE.

[1] = target: T2, TSLP receptors constitutively expressed on NAG8/7 cells; assay: displacement binding of 125I-TSLP by unlabeled TSLP on NAG8/7 cells, Scatchard transformation
T2 construct: also called single class of receptors
T2 sequence (Q8CII9 20-359): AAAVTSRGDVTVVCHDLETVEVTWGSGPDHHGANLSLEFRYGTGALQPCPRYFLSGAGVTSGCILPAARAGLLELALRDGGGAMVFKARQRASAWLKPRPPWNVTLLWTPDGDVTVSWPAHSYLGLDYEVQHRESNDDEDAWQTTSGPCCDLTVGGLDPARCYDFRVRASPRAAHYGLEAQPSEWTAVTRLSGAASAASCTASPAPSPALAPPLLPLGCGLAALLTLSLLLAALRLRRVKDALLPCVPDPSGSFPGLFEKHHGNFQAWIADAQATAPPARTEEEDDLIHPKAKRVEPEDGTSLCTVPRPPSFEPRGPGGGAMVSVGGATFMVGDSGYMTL
Procedure: The binding of TSLP to 293 cells transfected with murine IL-7Rα and murine TSLPR polypeptide, or murine IL-7Rα alone, was analyzed in a displacement binding assay. Following two washes, 1×10⁶transfected 293 cells were incubated in a constant amount of ¹²⁵I-labeled TSLP (approximately 20,000 cpm) and varying amounts of unlabeled TSLP. Following a 3 hour incubation, treated cells were separated from the medium by centrifugation in olive oil and N-butylphthalate. Cell-bound radioactivity was measured using a gamma counter.
Analysis of binding data by Scatchard transformation was performed using the LIGAND computer program (Munson and Rodbard, 1980, Anal. Biochem. 107:220-39). […] Due to the very low binding activity of TSLP for cells expressing TSLPR polypeptide alone, it was not possible to determine the Kd for these cells. Displacement binding assays were also performed using NAG8/7 cells, which constitutively express TSLP receptors and proliferate in response to TSLP (Friend et al., supra; Levin et al., supra). In these displacement binding assays, 5×10⁶ NAG8/7 cells were incubated in a constant amount of ¹²⁵I-labeled TSLP (approximately 180,000 cpm) and varying amounts of unlabeled TSLP. The remainder of the assay was performed as described herein.

B1: Thymic stromal lymphopoietin (TSLP) (ligand, UniProt Q9JIE6 20-140, looked up)
chain: YNFSNCNFTSITKIYCNIIFHDLTGDLKGAKFEQIEDCESKPACLLKIEYYTLNPIPGCPSLPDKTFARRTREALNDHCPGYPETERNDGTQEMAQEVQNICLNQTSQILRLWYSFMQSPE
binding result (murine IL-7Rα): no binding (tested: 1-5 nM of 125I-labeled TSLP)
Kd [1]: ~2.2 nM
